Test results: patent US20030103975A1

Assays:
[1] = target: soluble αvβ3 integrin heterodimer (Chemicon International) (UniProt P06756); assay: competition ELISA: soluble αvβ3 (5 ng/µl) on wells coated with G^919-1207 (the competitor), with increasing fibronectin
[2] = target: α3β1 integrin on human endothelial cells (TrHBMEC) (human) (UniProt P26006); assay: cell-based or functional assay
Sequence of α3β1 integrin on human endothelial cells (TrHBMEC) (human) (P26006 33-1051, chain 1 of 2): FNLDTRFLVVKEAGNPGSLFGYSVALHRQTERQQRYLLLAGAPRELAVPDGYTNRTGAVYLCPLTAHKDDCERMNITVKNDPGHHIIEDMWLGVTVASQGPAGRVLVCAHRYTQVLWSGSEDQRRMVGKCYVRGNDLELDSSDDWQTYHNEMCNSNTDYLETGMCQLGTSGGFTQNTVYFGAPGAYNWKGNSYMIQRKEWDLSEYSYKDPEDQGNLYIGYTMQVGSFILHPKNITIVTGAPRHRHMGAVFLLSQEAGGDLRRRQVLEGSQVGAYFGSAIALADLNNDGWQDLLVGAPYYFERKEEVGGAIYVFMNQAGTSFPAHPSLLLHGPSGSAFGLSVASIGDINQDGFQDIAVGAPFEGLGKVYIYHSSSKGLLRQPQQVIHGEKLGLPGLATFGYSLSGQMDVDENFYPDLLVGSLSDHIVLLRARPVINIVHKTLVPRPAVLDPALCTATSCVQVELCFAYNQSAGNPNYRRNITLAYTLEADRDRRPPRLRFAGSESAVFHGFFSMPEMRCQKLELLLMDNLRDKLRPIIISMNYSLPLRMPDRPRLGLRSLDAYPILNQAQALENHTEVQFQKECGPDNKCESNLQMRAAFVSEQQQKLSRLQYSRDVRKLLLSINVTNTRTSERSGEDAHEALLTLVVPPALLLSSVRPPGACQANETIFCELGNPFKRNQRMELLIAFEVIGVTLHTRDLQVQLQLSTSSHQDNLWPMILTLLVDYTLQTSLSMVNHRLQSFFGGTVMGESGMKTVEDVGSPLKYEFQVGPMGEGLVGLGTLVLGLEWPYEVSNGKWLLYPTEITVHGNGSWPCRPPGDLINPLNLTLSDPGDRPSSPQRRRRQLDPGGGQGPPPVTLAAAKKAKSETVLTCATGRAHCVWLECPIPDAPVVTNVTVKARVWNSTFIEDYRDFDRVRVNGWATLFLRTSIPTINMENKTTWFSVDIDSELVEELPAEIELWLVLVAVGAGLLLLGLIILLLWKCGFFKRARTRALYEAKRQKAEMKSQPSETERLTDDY
Sequence of α3β1 integrin on human endothelial cells (TrHBMEC) (human) (P05556 21-798, chain 2 of 2, further chain): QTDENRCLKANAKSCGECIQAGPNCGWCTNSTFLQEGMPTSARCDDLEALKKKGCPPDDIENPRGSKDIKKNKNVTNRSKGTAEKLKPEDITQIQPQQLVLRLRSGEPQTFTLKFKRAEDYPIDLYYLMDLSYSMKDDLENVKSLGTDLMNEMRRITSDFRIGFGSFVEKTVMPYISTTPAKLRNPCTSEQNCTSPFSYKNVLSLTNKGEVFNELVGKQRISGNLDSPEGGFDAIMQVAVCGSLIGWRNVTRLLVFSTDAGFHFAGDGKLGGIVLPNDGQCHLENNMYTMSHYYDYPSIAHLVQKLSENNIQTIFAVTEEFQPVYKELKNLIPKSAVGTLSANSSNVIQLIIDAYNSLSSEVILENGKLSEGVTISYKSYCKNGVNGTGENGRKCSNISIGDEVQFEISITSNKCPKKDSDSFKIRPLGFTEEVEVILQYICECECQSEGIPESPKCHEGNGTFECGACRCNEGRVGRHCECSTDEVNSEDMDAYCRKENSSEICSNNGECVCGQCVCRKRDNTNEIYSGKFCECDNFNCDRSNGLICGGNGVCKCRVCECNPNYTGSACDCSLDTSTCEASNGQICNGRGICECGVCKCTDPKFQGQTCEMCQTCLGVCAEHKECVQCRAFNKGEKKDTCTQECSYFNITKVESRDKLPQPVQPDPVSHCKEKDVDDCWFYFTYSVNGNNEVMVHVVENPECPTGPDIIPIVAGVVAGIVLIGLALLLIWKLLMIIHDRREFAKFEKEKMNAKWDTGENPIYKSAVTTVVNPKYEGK

Sequence of human fibronectin (BD Biosciences), P02751 32-2296 (ligand) (P02751 other isoform, or with tags, fused parts or gaps limits assumed): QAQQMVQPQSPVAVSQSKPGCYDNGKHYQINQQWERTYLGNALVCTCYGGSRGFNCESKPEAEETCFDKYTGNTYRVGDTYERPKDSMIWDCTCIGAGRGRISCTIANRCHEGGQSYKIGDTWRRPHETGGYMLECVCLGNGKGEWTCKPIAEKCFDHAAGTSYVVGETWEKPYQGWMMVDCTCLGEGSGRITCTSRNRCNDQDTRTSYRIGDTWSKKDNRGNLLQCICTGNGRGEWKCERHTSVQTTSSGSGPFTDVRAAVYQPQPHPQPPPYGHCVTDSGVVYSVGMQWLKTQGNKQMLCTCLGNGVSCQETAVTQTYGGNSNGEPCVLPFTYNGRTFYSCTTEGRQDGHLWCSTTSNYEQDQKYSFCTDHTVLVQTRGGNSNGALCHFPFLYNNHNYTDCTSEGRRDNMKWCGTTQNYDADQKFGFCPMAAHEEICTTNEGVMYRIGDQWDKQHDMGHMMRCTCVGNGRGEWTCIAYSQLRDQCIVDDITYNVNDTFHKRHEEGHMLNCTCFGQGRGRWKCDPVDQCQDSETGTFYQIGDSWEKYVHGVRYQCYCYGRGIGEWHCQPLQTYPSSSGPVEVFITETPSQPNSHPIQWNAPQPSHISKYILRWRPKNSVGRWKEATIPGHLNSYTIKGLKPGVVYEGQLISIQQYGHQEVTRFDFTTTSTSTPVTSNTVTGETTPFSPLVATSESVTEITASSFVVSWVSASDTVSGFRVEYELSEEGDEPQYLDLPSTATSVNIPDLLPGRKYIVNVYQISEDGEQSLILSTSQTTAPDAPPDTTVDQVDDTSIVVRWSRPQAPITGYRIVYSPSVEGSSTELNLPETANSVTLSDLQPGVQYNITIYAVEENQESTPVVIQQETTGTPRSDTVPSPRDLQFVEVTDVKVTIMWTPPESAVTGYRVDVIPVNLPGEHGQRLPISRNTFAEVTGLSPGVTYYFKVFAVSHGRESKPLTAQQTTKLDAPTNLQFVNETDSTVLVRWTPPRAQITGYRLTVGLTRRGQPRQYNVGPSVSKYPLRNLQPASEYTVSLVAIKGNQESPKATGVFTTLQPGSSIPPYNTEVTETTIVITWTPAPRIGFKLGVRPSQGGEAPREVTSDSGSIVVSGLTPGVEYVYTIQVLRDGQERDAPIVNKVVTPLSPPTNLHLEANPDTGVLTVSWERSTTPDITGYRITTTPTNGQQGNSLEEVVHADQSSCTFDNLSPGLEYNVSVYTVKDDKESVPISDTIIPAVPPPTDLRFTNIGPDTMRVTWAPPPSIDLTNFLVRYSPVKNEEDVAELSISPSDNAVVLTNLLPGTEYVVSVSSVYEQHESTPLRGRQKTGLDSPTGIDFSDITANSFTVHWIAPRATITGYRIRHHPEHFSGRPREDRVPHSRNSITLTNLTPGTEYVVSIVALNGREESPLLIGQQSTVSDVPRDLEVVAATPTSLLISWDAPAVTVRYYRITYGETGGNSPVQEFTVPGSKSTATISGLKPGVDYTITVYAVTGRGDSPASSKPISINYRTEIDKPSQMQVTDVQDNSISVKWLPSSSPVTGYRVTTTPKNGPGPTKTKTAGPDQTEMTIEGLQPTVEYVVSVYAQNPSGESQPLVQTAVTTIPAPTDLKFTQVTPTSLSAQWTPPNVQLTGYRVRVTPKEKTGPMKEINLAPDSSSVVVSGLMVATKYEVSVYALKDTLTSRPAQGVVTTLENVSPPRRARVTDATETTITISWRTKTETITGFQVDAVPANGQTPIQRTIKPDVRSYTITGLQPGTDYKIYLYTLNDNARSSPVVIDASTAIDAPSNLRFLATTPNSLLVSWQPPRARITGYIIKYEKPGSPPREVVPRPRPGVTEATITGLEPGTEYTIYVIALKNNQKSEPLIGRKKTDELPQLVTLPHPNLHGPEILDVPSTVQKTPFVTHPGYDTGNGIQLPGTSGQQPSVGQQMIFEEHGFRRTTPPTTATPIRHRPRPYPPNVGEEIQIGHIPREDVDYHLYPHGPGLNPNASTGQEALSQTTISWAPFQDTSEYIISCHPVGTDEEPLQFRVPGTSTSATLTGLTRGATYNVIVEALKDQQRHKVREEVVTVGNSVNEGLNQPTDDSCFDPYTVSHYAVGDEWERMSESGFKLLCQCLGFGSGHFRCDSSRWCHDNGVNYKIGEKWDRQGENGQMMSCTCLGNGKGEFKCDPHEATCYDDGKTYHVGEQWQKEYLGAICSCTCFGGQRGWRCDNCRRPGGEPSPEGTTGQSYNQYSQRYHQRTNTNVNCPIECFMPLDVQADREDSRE

Substance | IC50 [1] [nM] | inhibition of endothelial cell adhesion to laminin 5 by a combination of antibodies against the α3 and α6 integrin subunits [2] [%] | inhibition of endothelial cell adhesion to laminin 5 by antibody 6S6 against β1 integrin [2] [%] | inhibition of endothelial cell adhesion to laminin 5 by antibody LM609 against αvβ3 integrin [2] [%]
human fibronectin (BD Biosciences), P02751 32-2296 (ligand) | 84 |  |  | 
laminin 5 derived from conditioned medium of cultured epithelial cells (ligand) |  | 40 | > 80 | 60
